According to patent publication US20120225088, “COMPOSITIONS AND METHODS FOR TREATING CANCER AND OTHER DISEASES” (published 2012):

Assays:
Details in all cases: tags: endogenous on Ramos Burkitt's lymphoma cells; label: 5' FITC or Cy3; stem-loop hairpin
[1] = target: T1, membrane-bound IgM (mIgM, immunoglobulin heavy mu chain of B-cell receptor) (Homo sapiens, UniProt P01871 P01871:1-474); assay: flow; Bmax/2 (Kd') on Ramos cells, 4 C, 5 mM MgCl2
Protocol: (§1) All the in vitro experiments were done using a binding buffer composed of RPMI 1640 and 4.5 g/L glucose (Sigma-Aldrich) and 5 mM MgCl₂ for monomers, 20 mM MgCl₂ for multimers (Sigma-Aldrich), 100 mg/L tRNA (Sigma-Aldrich), 100 mg/L single stranded DNA (Sigma-Aldrich), 100 mg/L BSA (Sigma-Aldrich) and binding was analyzed for binding using flow cytometry in binding buffer (Acurri C6) using binding buffer. We used 20 mM Mg⁺² for optimal for the folding of the aptamer in vitro and 5 mM Mg⁺² for experiments in vivo. The binding buffer consists of tRNA and single stranded DNA that are capable of scavenging Mg⁺² thereby reducing the effective concentration of Mg ions. […]
(§2) Cell Binding Assays. Affinity of each construct was evaluated by incubating Ramos cells (2.5×10⁵) with a series of FITC or Cy3 labeled constructs in a 50 μL of binding buffer on ice for 45 min Cells were then washed with lmL of wash buffer at 4° C. and resuspended in 100 μL of wash buffer. The binding of the constructs was analyzed using flow cytometry by counting 10,000 events for each concentration. […] Binding at respective concentrations and absolute fluorescence intensity difference was used for the binding curves. When calculating the relative binding constant, binding curves were fitted with median fluorescence intensity observed for each histogram and observed Bmax/2 was used as the binding constant. […]

[2] = target: T1, membrane-bound IgM (mIgM, …); assay: flow; Bmax/2 on Ramos cells, 4 C, 5 mM MgCl2
Protocol: as §1, §2

[3] = target: T1, membrane-bound IgM (mIgM, …); assay: flow; Bmax/2 on Ramos cells, 4 C
Protocol: as §1, §2

T1 sequence (P01871 whole entry, one chain of several): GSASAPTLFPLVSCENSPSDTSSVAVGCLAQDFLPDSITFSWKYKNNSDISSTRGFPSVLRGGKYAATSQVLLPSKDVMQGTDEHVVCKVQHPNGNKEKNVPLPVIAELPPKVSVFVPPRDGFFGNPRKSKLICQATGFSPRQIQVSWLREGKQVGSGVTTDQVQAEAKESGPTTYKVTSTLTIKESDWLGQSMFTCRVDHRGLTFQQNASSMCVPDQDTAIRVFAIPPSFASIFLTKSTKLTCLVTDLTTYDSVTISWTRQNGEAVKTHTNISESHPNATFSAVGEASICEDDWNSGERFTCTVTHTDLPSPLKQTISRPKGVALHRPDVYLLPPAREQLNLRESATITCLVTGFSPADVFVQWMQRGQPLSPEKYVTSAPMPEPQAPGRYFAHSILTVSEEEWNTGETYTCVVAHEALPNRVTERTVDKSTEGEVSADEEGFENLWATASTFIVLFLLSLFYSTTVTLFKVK

Binder | Kd [2] | other results
ACCGTGGAGGATAGTTCGGTGGCTGTTCAGGGTCTCCTCCACGGT (ssDNA) [TD05] | – | Kd [1]: 359 nM
CGTGGAGGATAGTTCGGTGGCTTCAGGGTCTCCTCCCG (ssDNA) [TD05.7] | 148 nM | –
AGGAGGATAGTTCGGTGGCTGTTCAGGGTCTCCTCCT (ssDNA) [TD05.1] | 53 nM | –
AGGAGGATAGTTCGGTGGCTGTTCAGGGTCTCCTCCT (ssDNA, LNA at last four nucleotides (3' stem pyrimidines TCCT) [34,35,36,37 (LNA)]) [TD05.17] | – | Kd [3]: 43 nM
